Here are results for 3 molecules from article PMC5405867 (Nature structural & molecular biology, 2017).

In general, Kd refers to the free concentration of one partner at which half of the binding sites on the other are occupied at equilibrium, for simple one-to-one binding. A higher Kd goes with weaker binding.

Assay [1] deals with T1, human USP18 (residues 16-372), tag removed (human, UniProt Q9UMW8 16-372).
T1 sequence (looked up): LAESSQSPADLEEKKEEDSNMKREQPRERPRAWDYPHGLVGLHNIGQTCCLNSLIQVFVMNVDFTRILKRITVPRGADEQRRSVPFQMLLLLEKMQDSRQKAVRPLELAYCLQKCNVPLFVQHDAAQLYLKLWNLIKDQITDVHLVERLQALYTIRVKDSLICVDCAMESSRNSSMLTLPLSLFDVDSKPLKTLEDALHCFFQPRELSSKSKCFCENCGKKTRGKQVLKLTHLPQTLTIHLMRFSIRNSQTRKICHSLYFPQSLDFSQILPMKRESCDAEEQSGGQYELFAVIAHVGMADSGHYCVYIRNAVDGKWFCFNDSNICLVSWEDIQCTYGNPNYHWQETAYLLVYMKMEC
As to the kind of experiment: covalent adduct formation with an active-site probe.

For assay [2], the target named is T2, murine USP18^IBB-2-USP7, His6-tagged (mouse, UniProt Q9WTV6 1-368, residues 256-263 (S-A-R-N-S-R-T-E) replaced by the corresponding residues …).
T2 sequence (looked up): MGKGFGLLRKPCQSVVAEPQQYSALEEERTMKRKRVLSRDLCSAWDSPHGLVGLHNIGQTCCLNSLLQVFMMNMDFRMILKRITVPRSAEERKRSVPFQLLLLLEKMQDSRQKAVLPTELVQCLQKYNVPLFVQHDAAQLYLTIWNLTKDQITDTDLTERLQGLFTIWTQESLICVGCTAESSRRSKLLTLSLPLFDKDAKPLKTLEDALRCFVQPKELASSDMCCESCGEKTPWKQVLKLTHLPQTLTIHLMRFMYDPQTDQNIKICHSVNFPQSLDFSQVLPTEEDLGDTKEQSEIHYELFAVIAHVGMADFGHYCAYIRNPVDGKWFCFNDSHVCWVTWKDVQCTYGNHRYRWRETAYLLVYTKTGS
The experiment in a line: cell-based or functional assay.

The target of assay [3] is T3, murine USP18 catalytic core (residues 46-368), His6-tagged (mouse, UniProt Q9WTV6 46-368).
T3 sequence (looked up): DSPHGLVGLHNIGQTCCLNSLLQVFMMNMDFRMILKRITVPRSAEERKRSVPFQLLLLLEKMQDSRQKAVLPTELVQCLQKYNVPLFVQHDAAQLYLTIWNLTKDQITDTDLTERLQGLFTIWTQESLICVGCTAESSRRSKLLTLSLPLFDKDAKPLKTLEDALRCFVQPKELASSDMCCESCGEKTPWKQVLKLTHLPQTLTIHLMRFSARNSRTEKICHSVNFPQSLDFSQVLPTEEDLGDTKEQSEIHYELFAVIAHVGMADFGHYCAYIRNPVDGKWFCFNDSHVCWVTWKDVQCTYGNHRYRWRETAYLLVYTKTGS
As to the kind of experiment: SPR.

Residue numbers refer to the chain shown, from its start. In names and notes the source's numbering stands.

B1: mouse ISG15-PA (full-length ISG15 propargylamide probe, residues 1-154, C76S) (natural protein, UniProt Q64339 1-154, looked up)
chain: MAWDLKVKMLGGNDFLVSVTNSMTVSELKKQIAQKIGVPAFQQRLAHQTAVLQDGLTLSSLGLGPSSTVMLVVQNSSEPLSILVRNERGHSNIYEVFLTQTVDTLKKKVSQREQVHEDQFWLSFEGRPMEDKELLGEYGLKPQCTVIKHLRLRG
modifications: C-terminal propargylamide (PA)
Take B1: the binding result in assay [1] was “binds”.

B2: mouse ISG15 (residues 1-155, C76S) (natural protein, UniProt Q64339 1-155, looked up)
chain: MAWDLKVKMLGGNDFLVSVTNSMTVSELKKQIAQKIGVPAFQQRLAHQTAVLQDGLTLSSLGLGPSSTVMLVVQNSSEPLSILVRNERGHSNIYEVFLTQTVDTLKKKVSQREQVHEDQFWLSFEGRPMEDKELLGEYGLKPQCTVIKHLRLRGG
In the case of B2, the “catalytic activity towards ISG15-FP, percent of wild type” value in assay [2] was 65 % of wt activity. In addition, the affinity in assay [3], expressed as Kd, was 1490 ± 30 nM.

B3: mouse ISG15-W121R (C76S) (natural protein, UniProt Q64339 1-155, looked up)
chain: B2 chain with W121R
Take B3: the “stoichiometry N” value in assay [3] is 0.4 ISG15 per immobilized USP18.
